Where “and” joins values, the source holds several entries; their conditions need not be identical. Equal values may be shown once. Ends that are not written are not given here.

We go through 11 molecules from patent US20060233708A1.

The target of test [1] is TGF-β receptors in mink lung epithelial cells. Briefly: competition with 125I-TGF-β1 for binding to mink lung epithelial cells.
Test [2] shares this target.
The target is the same in test [3]. Briefly: specific binding of 125I-TGF-β1 to mink lung epithelial cells without peptide.
Test [4] shares this target. Briefly: specific binding of 0.1 nM 125I-TGF-β1 to mink lung epithelial cells.
The target is the same in test [5]. Briefly: specific binding of 125I-TGF-β3 to mink lung epithelial cells without peptide.
Test [6] shares this target. Briefly: competition with 125I-TGF-β1 for binding to mink lung epithelial cells. The source holds these as a separate data set.
Test [7] shares this target. Briefly: competition with 125I-TGF-β3 for binding to mink lung epithelial cells.
For test [8] the target is unchanged. Briefly: competition with 125I-TGF-β2 for binding to mink lung epithelial cells.
The target is the same in test [9]. Briefly: specific binding of 125I-TGF-β2 to mink lung epithelial cells without peptide.
Test [10] addresses type II TGF-β receptor (mink). Briefly: inhibition of 125I-TGF-β1 affinity labeling of receptors on mink lung epithelial cells.
The target of test [11] is type V TGF-β receptor (mink). The test is described as above.
Test [12] addresses type I TGF-β receptor (mink). The test is described as above.
The target of test [13] is type III TGF-β receptor (mink). Described as above.

One may read the IC50 as the concentration at which inhibition is half-maximal. On to “peptide β1^25 (41-65)-bovine serum albumin (BSA) conjugate (from UniProt P02769)”, for which, in test [1], the 50% inhibitory concentration (IC50) stood at 60 nM and the fold lower IC50 than peptide β1^25 (41-65) prior to conjugation was 20 fold. In addition, the ED50 of growth inhibition as measured by DNA synthesis in mink lung epithelial cells in test [2] was found to be 0.1 µM.
In test [1], “peptide β1^25 (41-65)-carbonic anhydrase (CA) conjugate (from UniProt P00915)” showed an IC50 of 50 nM and a fold lower IC50 than peptide β1^25 (41-65) prior to conjugation of 20 fold. Besides, in test [2], the ED50 of growth inhibition as measured by DNA synthesis in mink lung epithelial cells stood at 0.1 µM.
In turn, TGF-β1 (ligand) displayed a specific binding (0% inhibition) in [3] of 3930 cpm/well. This molecule came in with a specific binding without peptides in test [4] of 3670 cpm/well.

B1: TGF-β3 (ligand)
chain: ALDTNYCFRNLEENCCVRPLYIDFRQDLGWKWVHEPKGYYANFCSGPCPYLRSADTTHSTVLGLYNTLNPEASASPCCVPQDLEPLTILYYVGRTPKVEQLSNMVVKSCKCS
modifications: ^125I-labelled (iodination with Na^125I)
In turn, B1 yielded a specific binding (0% inhibition) in test [5] of 4220 cpm/well.

B2: peptide β2^10 (49-58) S53A (peptide)
peptide: PYLWASDTQH
Take B2: the IC50 in test [6] is 40 µM. This lies in the double-digit micromolar range.

B3: peptide β3^25 (41-65) (peptide)
peptide: ANFCSGPCPYLRSADTTHSTVLGLY
modifications: not fully specified; cysteine pairing not given here
As for B3, the half-maximal inhibitory concentration (IC50) in [7] was 60 to 80 nM; in test [8] it was 20000 nM; in test [6], 20 µM.

B4: peptide β2^25 (41-65) (peptide)
peptide: ANFCAGACPYLWSSDTQHSRVLSLY
modifications: not fully specified; cysteine pairing not given here
As to B4, the IC50 was 80 nM in [7]; 1000 nM and 2000 nM in [8]; 1 µM and 2 µM in [6].

B5: TGF-β2 (ligand)
chain: ALDAAYCFRNVQDNCCLRPLYIDFKRDLGWKWIHEPKGYNANFCAGACPYLWSSDTQHSRVLSLYNTINPEASASPCCVSQDLEPLTILYYIGKTPKIEQLSNMIVKSCKCS
modifications: ^125I-labelled (iodination with Na^125I)
In [9], B5 returned a specific binding (0% inhibition) of 4510 cpm/well.

B6: peptide β1^25 (41-65) (peptide)
peptide: ANFCLGPCPYIWSLDTQYSKVLALY
modifications: not fully specified; cysteine pairing not given here
With B6, the IC50 in test [7] was 60 to 80 nM; in test [8] it was 1000 nM and 2000 nM; in [6], 1 µM and 2 µM. For the same molecule, the percent inhibition of ^125I-TGF-β1-affinity labeling at 2.3 µM in [10], in test [12] and in test [13] was 30 to 40% in each case. This molecule showed a concentration at which ^125I-TGF-β1-affinity labeling was almost completely abolished in test [11] of 2.3 µM. The molecule also showed a concentration of complete inhibition of ^125I-TGF-β1 binding in test [6] of 34 µM.

B7: peptide β1^10 (49-58) (peptide)
peptide: PYIWSLDTQY
In the case of B7, the IC50 in test [6] lay within 40 to 70 µM.

B8: peptide β2^10 (49-58) (peptide)
peptide: PYLWSSDTQH
B8 came in with an IC50 in test [6] of 40 to 70 µM.
